From publication PMC9399903 (Nature structural & molecular biology, 2022)

What was measured:
[1] = biological target: the molecule itself; assay: SEC
[2] = biological target: wild-type yeast core particle (CP, 20S proteasome) (S. cerevisiae (endogenous in yeast)) (UniProt P23639)
Sequence of wild-type yeast core particle (CP, 20S proteasome) (S. cerevisiae (endogenous in yeast)) (P23639 whole entry, looked up): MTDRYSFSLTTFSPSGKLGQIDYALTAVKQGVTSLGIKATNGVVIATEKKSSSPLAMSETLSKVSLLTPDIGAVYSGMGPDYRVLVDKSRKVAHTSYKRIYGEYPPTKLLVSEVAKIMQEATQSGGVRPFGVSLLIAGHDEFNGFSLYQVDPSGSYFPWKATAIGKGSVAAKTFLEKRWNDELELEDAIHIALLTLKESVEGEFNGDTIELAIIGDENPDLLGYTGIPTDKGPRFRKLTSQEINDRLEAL

inhibition of CP peptidase activity at 2-fold molar excess of Fub1 [2]: 50%
B1: Fub1 (S. cerevisiae PI31), endogenous untagged (natural protein, UniProt P25659 1-250, looked up)
chain: MIENKVELVAELVLESIGKTEVVSRHTEGTKSCQVSFRIKDSPSEKGSTSFLSELVVIQTLDDNDKYTVVIRHGTSITMACVVGYSDFKLPTELKWPLERESLPVEPDLKPIMTQLKRQTAGSADMPKFDDEYQAQARQNQGTAPLNPYPGLTVTEPSFANPAGGYADGDLYPVGTSHPDWSGGLPNPLGNPSSQGGMIFDPNRRPAPRREDMPPGWMPGSKYDEPFGPGSGGFGGSGSGGFGGSGSGFI
stoichiometry N [1]: 2
